Here are results for 1 molecule from publication doi:10.1101/2022.05.04.490172.

For the series, the target named is T1, BRN2 DNA-binding domain (BRN2-DBD) (Homo sapiens, UniProt P20265 264-415).
T1 sequence: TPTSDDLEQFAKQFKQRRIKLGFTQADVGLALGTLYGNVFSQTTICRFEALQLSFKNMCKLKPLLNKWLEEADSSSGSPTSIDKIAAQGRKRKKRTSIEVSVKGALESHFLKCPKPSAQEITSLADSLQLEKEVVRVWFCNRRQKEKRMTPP
The series is described as follows: X-ray crystallography.

B1: MORE DNA (dsDNA)
DNA 1: GTATGCAAATAAG
DNA 2: CTTATTTGCATAC
Take B1: the binding result is on record as “binds”.
